As a reminder, the EC50 is the concentration needed to bring the measured effect to its halfway point.

For experiment [1], the system named is CLL-1 positive U937 cells. Nature of the experiment: Flow cytometry binding of fusion proteins to U937 cells (FMC63-PE detection). Set-up: species or system human. The note with it: FIG. 20. Here is the method:
The ability of an expressed biparatopic construct comprising the fusion protein containing a CD19 variant, an anti-CLL-1 scFv, and an anti-CLL-1 VHH (#357) to bind CLL-1 positive U937 cells was evaluated relative to the binding of an expressed construct containing a fusion protein comprised of a CD19 variant and an anti-CLL-1 VHH (#330) and an expressed construct containing a fusion protein comprised of a wild type CD19 and an anti-CLL-1 scFv (#186). […] Approximately 5×10^5 cells were aliquoted per sample. The cells were spun, washed with FB, and then suspended in 100 μl of the biparatopic or monospecific fusion protein dilution (supernatant or purified starting at 10 μg/ml) in FB. The cell/fusion protein mixture was incubated for 30 minutes at 4° C. and then washed 2× with FB. […] After washing 2× with FB, the cells were fixed with a final concentration of 1% PFA in PBS (Thermo Scientific) and then analyzed by flow cytometry (Accuri C6, Becton-Dickinson).
To further confirm the binding and cytotoxicity capabilities of an expressed biparatopic fusion protein comprising a CD19 variant, an anti-CLL-1 scFv, and an anti-CLL-1 VHH, a construct was generated with the same features as construct #357 but lacking the HIS tag. […] The cells were washed twice with FACS buffer, fixed with a final concentration of 1% PFA in PBS (Thermo Scientific) and then analyzed by flow cytometry. […]
For orientation: A flow cytometer gives signals particle by particle.

The target of a further experiment is CLEC12A. Nature of the experiment: ELISA binding of fusion proteins (FMC63 coat, HRP-anti-His detection). To be noted: purified fusion protein. Set-up: species or system human. Here is the method: The binding of the biparatopic fusion proteins to CLEC12A was also examined by ELISA. […] The plate was left to incubate overnight at 4° C. The coated plate was blocked with TBS/0.3% nonfat dry milk (NFD) for 60 minutes at RT.
On the technique in general: An ELISA detects its analyte on a solid surface through an enzyme-linked reagent.

A further experiment has as its target T1, CLEC12A K form (Homo sapiens, UniProt Q5QGZ9).
T1 construct: transfected with full-length CLEC12A (UniProt Q5QGZ9-1) cDNAs; host or cells: HEK-293T
T1 sequence (Q5QGZ9 1-275 isoform Q5QGZ9-1): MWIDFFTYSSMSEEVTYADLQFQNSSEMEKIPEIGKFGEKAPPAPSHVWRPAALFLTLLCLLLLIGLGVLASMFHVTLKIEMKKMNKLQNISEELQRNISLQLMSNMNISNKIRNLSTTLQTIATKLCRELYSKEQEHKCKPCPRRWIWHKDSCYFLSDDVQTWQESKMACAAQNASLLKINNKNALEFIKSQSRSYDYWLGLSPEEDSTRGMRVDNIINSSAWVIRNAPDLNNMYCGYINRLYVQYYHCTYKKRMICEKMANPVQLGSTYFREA
Nature of the experiment: Flow cytometry binding to HEK-293T cells transfected with CLEC12A amino acid 254 K version. The note with it: FIG. 19. Here is the method: (§1) Given the unique binding properties of VHH clone 2H3 relative to the anti-CLEC12A scFv we tested the binding properties of a biparatopic fusion protein containing both the VHH clone 2H3 and an anti-CLEC12A scFv. HEK-293T cells were transfected with full-length CLEC12A (UniProt Q5QGZ9-1) cDNAs expressing the amino acid 254 “K” version of CLEC12A (GenScript) or a version with “Q” at this position generated by mutagenesis. The cells were removed with Accutase and washed with PBS, suspended in 50 μL FACS buffer (FB, PBS+1% BSA and 0.1% sodium azide) and blocked with human Fc block (Becton Dickinson) at room temperature for 10 minutes. Then, 50 μl of the purified fusion proteins #186, #330 or #357 diluted in FACS buffer (starting at 3 μg/ml with 3 fold dilutions) were added. The cell/fusion protein mixture was incubated for 30 minutes at 4° C. and then washed twice with FACS buffer. The cells were suspended in 100 μl of FACS buffer, stained with HIB19-PE (BioLegend […]), and incubated for 30 minutes at 4° C. The cells were washed twice with FACS buffer, fixed with a final concentration of 1% PFA in PBS (Thermo Scientific) and then analyzed by flow cytometry.

The next experiment addresses T2, CLEC12A Q form (Homo sapiens, UniProt Q5QGZ9, K244Q).
T2 construct: transfected with full-length CLEC12A (UniProt Q5QGZ9-1) cDNAs; expressed in transfected cells; host or cells: HEK-293T
T2 sequence (Q5QGZ9 1-275 isoform Q5QGZ9-1 K254Q): T1 sequence (Q5QGZ9 1-275 isoform Q5QGZ9-1) with K254Q
Put plainly: Flow cytometry binding to HEK-293T cells transfected with CLEC12A amino acid 254 Q version. To be noted: FIG. 19. The protocol:
as §1

Positions count from the first letter of the chain named. Like-named read-outs stand apart in the source and are kept apart here.

B1: #440: fusion protein comprising an anti-CLEC12A VHH, an anti-CD33 scFv, and a CD19 ECD; SEQ ID NO:321 (protein)
chain: MEFGLSWVFLVALFRGVQCQVQLVQSGAEVKKPGESVKVSCKASGYTFTNYGMNWVKQAPGQGLEWMGWINTYTGEPTYADKFQGRVTMTTDTSTSTAYMEIRNLGGDDTAVYYCARWSWSDGYYVYFDYWGQGTSVTVSSGGGGSGGGGSGGGGSDIVMTQSPDSLTVSLGERTTINCKSSQSVLDSSTNKNSLAWYQQKPGQPPKLLLSWASTRESGIPDRFSGSGSGTDFTLTIDSPQPEDSATYYCQQSAHFPITFGQGTRLEIKGGGGSGGGGSGGGGSGGGGSQVQLQESGGGLVQAGGSLRLSCVASGSIRSINVMGWYRQAPGKQRELVAACASDGNTYYADSVKGRFTISRDNAEKTVYLQMNNLKPDDTAVYYCDANSRGNYYSGQGTQVTVSSTSGPGGQGAGGGGSGGGGSGGGGSGGGGSPEEPLVVKVEEGDTAALWCLKGTSDGPTQQLTWSRESPLKPFLKYSLGVPGLGVHVRPDAISVVIRNVSQQMGGFYLCQPGPPSEKAWQPGWTVNVEGSGELFRWNVSDLGGLGCGLKNRSSEGPSSPSGKLMSPKLYVWAKDRPEIWEGEPPCLPPRDSLNQSLSRDLTVAPGSTLWLSCGVPPDSVSRGPLSWTHVHPKGPKSLLSLELKDDRPARDMWVMGTSLMLPRATAQDAGKWYCHRGNLTMSFHLEITARPSRHHHHHH
With B1, the “binding to U937 cells” value in experiment [1] is on record as “capable of binding to U937 cells”.

B2: #330: fusion protein comprised of a CD19 variant and an anti-CLL-1 VHH (2H3); SEQ ID NO:305 (protein)
chain: MEFGLSWVFLVALFRGVQCQVQLQESGGGLVQAGGSLRLSCVASGSIRSINVMGWYRQAPGKQRELVAACASDGNTYYADSVKGRFTISRDNAEKTVYLQMNNLKPDDTAVYYCDANSRGNYYSGQGTQVTVSSTSGPGGQGAGGGGSGGGGSGGGGSGGGGSPEEPLVVKVEEGDTAALWCLKGTSDGPTQQLTWSRESPLKPFLKYSLGVPGLGVHVRPDAISVVIRNVSQQMGGFYLCQPGPPSEKAWQPGWTVNVEGSGELFRWNVSDLGGLGCGLKNRSSEGPSSPSGKLMSPKLYVWAKDRPEIWEGEPPCLPPRDSLNQSLSRDLTVAPGSTLWLSCGVPPDSVSRGPLSWTHVHPKGPKSLLSLELKDDRPARDMWVMGTSLMLPRATAQDAGKWYCHRGNLTMSFHLEITARPSRHHHHHH
Turning to B2, the EC50 on CLEC12A (FMC63 coat, read-out: CLEC12A binding (ELISA EC50)) was determined as 13 pM. Also, the EC50 at CLEC12A (Table 8, read-out: EC50 of binding by ELISA) stood at 10 pM. For the same molecule, in the experiment with CLEC12A K form, the “binding to the K form of CLEC12A” value is on record as “very weakly” and the “binding to the K form weaker than to the Q form” value is given as “greater than 10,000 fold”. The “binding to the Q form of CLEC12A” value with CLEC12A Q form is on record as “binds very well”.

The record behind these values is US20220387487A1, “COMPOSITIONS AND METHODS FOR TREATMENT OF CANCER” (Aleta Biotherapeutics Inc., priority 2019, published 2022).
